From patent US20130315920A1, “Cross Protective Epitopes of Aspergillus Fumigatus and Candida Albicans” (Cell Medica Limited, priority 2010, published 2013) come the findings set out here.

Test [1] addresses PE-conjugated Crf1 p41-specific HLA-DRB1*0401 MHC class II tetramer (Aspergillus fumigatus; human). Put plainly: flow cytometry, tetramer staining of T-cell lines expanded for 14 days. A general note: Flow cytometry measures light scatter and fluorescence of single cells or particles in a stream.
A further test deals with HLA-DRB1*03, 04 and 13. The test is described as follows: Minimal epitope analysis with 11-mer peptides. In kind it is cell-based, human. To be noted: data not shown. An excerpt: To evaluate the utility of the Crf1 p41 epitope for potential clinical application, we defined the HLA restriction of Crf1 p41-specific CD4^+ T clones from different donors by stimulation with peptide-pulsed partially matched LCLs. […] As presentation of the Crf1 p41 peptide could also be mediated by other MHC class II alleles, we verified the HLA restriction by stimulation of PBMC from additional donors.
A peptide library covering the complete Crf1 sequence consisting of 94 15-mer peptides overlapping by […] (aa) was divided into sub-pools of 10 peptides and 94 single peptides (p1-p94) (PANATecs). 3 11-mer peptides of p40/41 overlapping by 2aa ([…], […], HTYTIDWTKDA) were obtained from JPT Peptide Technologies.

For test [2], the target named is recombinant A. fumigatus Crf1 protein with FLAG-Tag (Aspergillus fumigatus).
The target of test [3] is recombinant A. fumigatus secreted protein peptidase (Aspergillus fumigatus).
A further test concerns C. albicans. The test is described as follows: Vaccination of mice before intragastric C. albicans infection. In kind it is in vivo, BALB/c mice. The protocol:
A. fumigatus Crf1 protein mediates cross-protection to C. albicans. Mice were injected intranasally with resting A. fumigatus conidia 14 days before infection, or with purified Crf1 protein and murine CpG oligodeoxynucleotide 1862 14, 7 and 3 days before intragastric infection with C. albicans. Note (a) the reduced inflammatory cell recruitment and acanthosis in mice vaccinated with A. fumigatus conidia or Crf1 protein as opposed to control mice shown in FIG. 5a and c and (b) the increase in protective TH1 and regulatory T-cell transcription factors and cytokine levels. Shown are fungal growth (CFU/organ, mean±SE), stomach histology and transcription factor and cytokine mRNA expression in CD4^+ T-cells from mesenteric lymph nodes a week after infection with C. albicans. Shown are results pooled from 2 experiments (6 animals/group). Bars indicate SE. P, vaccinated animals versus control. (c) Proliferation of purified CD4^+ spleen cells from untreated mice or animals vaccinated with A. fumigatus or C. albicans in response to control DC, anti-CD3E antibody, heat-inactivated A. fumigatus or C. albicans or A. fumigatus Crf1 p41 and p22 peptide. The results are expressed as mean cpm±SEM of triplicate cultures. P, stimulated versus control DC.
Mice were infected with 2×10^7 resting A. fumigatus conidia intranasally^7,45 and with 10^8C. albicans intragastrically^13. For co-infection, mice were infected a week before the subsequent infection. In the vaccination model, mice were injected intranasally with 2×10^7 Aspergillus resting conidia/20 μl saline once, 14d before infection, or with 5 μg purified Crf1p antigen^7 and 10 nM murine CpG oligodeoxynucleotide 1862, administered 14 d, 7 d and 3 d before intragastric C. albicans infection^7. Mice were monitored for survival (MST, days) and fungal growth (CFU/organ expressed as mean±SE). Mice dying of fungal challenge routinely underwent necropsy for histopathological confirmation of infection^7. […]

Test [4] has as its system T-cell lines from PBMC of healthy donors. Put plainly: IFN-γ ELISA of T-cell lines stimulated with recombinant A. fumigatus proteins. In kind it is cell-based, human. The settings on record: 5 μg/ml protein. From the text: As the identification of potential protective fungal antigens is rather intricate due to the extensiveness of fungal genomes, we analyzed 6 different A. fumigatus recombinant proteins based on their previously reported immunogeneic reactivity in mice and humans^7,10. […] By contrast, GPI-anchored extracellular cell wall glucanase Crf1 and secreted protein peptidase induced high IFN-γ in 6 of 7 and 5 of 10 tested donors, respectively. The response was mediated by CD4^+ TH1 cells, as MHC class II blocking antibody nearly abrogated IFN-γ release (data not shown). Due to the broad response and the sequence similarity to the C. albicans orthologue Crh1, we focused in subsequent experiments on the protein Crf1. By epitope mapping of 7 healthy individuals with different MHC class II alleles, we identified 10 potential candidate epitopes (Table 1). Based on the results obtained by epitope mapping, the probability of antigen presentation by certain MHC class II alleles assessed by epitope prediction^11, previously reported immunogeneic reactivity^12 and sequence similarity to the C. albicans homologue Crh1, we then generated CD4^+ TH1 T-cell clones specific for the peptides p1, p22, p27, p41, p48, p59, p69 and p84 (FIG. 1a and Table 1).
A. fumigatus superoxide dismutase^34, catalase^35, peptidase^36 and 1,3-beta-glucanosyl-transferase Gel1^30 were produced in the yeast Pichia pastoris as described^37. Extracellular cell wall glucanase Crf1^37 (cDNA provided by Utz Reichard) and the major allergen and cytotoxin AspF1^10 were expressed with FLAG-Tags in the human cell line phoenix GALV^38.
For analysis of recombinant proteins and epitope mapping, T-cell lines were generated by incubation of 1×10^7 PBMC per well in 6-well cell culture plates with 5 μg/ml protein or peptide for 7d in the presence of 5 U/ml IL-2 (Proleukin, Chiron). Antigen specificity was analyzed by IFN-γ ELISA^42 after restimulation with autologous monocytes incubated overnight with 5 μg/ml protein in a responder to stimulator (R:S) ratio of 5:1. Epitope mapping was performed by IFN-γ ELISPOT^39 after stimulation with peptide-pulsed autologous DC at a R:S ratio of 10:1.

In test [1], “Crf1 p41-specific CD4^+ T-cell lines expanded for 14 days (cells without a defined receptor)” came in with a frequency of antigen-specific cells as determined by tetramer (median) of 50.6%.

On to “HTYTIDWTKDA (peptide of A. fumigatus Crf1)”, for which the Minimal epitope result with HLA-DRB1*03, 04 and 13 is reported as “is the minimal epitope of Crf1 p41 for all 3 HLA alleles”.

Consider “T-cell lines from PBMC of healthy donors, raised with the respective recombinant A. fumigatus protein (cells without a defined receptor)”, for which the IFN-γ (ELISA) (of 7 tested donors) in test [2] is 6. Also, the IFN-γ (ELISA) (of 10 tested donors) in test [3] was found to be 5.

B1: Crf1: recombinant A. fumigatus GPI-anchored extracellular cell wall glucanase Crf1; given with CpG oligodeoxynucleotide 1862 in mice (protein)
chain: QTWSKCNPLEKTCPPNKGLAASTYTADFTSASALDQWEVTAGKVPVGPQGAEFTVAKQGDAPTIDTDFYFFFGKAEVVMKAAPGTGVVSSIVLESDDLDEVDWEVLGGDTTQVQTNYFGKGDTTTYDRGTYVPVATPQETFHTYTIDWTKDAVTWSIDGAVVRTLTYNDAKGGTRFPQTPMRLRLGSWAGGDPSNPKGTIEWAGGLTDYSAGPYTMYVKSVRIENANPAESYTYSDNSGSWQSIKFDGSVDISSSSSVTSSTTSTASSASSTSSKTPSTSTLATSTKATPTPSGTSSGSNSSSSAEPTTTGGTGSSNTGSGSGSGSGSGSSSSTGSSTSAGASATPELSQG
B1: the “Tbet/Foxp3 CD4+ T-cells and cytokines in mesenteric lymph nodes” value in the test with C. albicans (a week after infection with C. albicans) was “activation of Tbet^+/Foxp3^+ CD4^+T-cells and their respective cytokines, IFN-γ and IL-10, in mesenteric lymph nodes”. Further, in the test with C. albicans (vaccinated mice), the “Protection against lethal infection” value is reported as “protected against lethal infection with C. albicans”. For the same molecule, the “Fungal burden and inflammatory pathology in the stomach” value with C. albicans (vaccination intranasally before intragastric C. albicans infection, Crf1 protein with CpG as adjuvant) is “both vaccination strategies reduced the fungal burden and inflammatory pathology in the stomach of mice with candidiasis”. For the same molecule, the “donors with high IFN-γ of tested donors” value in test [4] is 6 of 7.
